Laboratory results published in patent US20070098715A1 (published 2007).
Like-named read-outs stand apart in the source and are kept apart here.

B1: Ten-M2-8.1 (antibody, IgG2, V domains shown)
VH: QVQLQQWGAGLLKPSETLSLTCAVYGGSFSHYYWSWIRQPPGKGLEWIGEINHSGSTNYNPSLKSRVTISVDTSKNQFSLKLSSVTAADTAVYYCARDITMVRGLGGMDVWGQGTTVTVSS
VL: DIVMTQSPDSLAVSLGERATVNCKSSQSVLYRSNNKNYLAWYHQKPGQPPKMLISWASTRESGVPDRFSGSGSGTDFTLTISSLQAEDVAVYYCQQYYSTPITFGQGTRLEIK
notes: Hybridoma clone from IgG2 kappa XenoMouse; tested as hybridoma supernatant
B2: Ten-M2-188 (antibody, IgG2, V domains shown)
VH: QVQLVQSGAEVKKPGASVKVSCKASGYTFTGYYMHWVRQAPGQGLEWMGWINPNSGGTNSAQRFQGRVTMTRDTSIYTAYMELSRLRSDDTAVYYCAREYRSGRYYNGMDVWGQGTTVTVSS
VL: DIQLTQSPSSLSASVGDRVTITCRASQDISNYLAWYQQKPGKVPKLLIYAASTLQSGVPSRFSGSGSGTDFTLTISSLQPEDIATYSCQKYSSTPFTFGPGTKVDIK
notes: Fully human mAb from IgG2 kappa XenoMouse (B cell clone)
B3: Ten-M2-213 (antibody, IgG2, V domains shown)
VH: QVQLVQSGAEVKKPGASVKVSCKASGYTFTNYDINWVRQATGQGLEWMGWMNPNSGNTGYAQKFQGRVTMTRNTSIRTAYMELSSLRSEDTAVYYCARGPGGSFYYYYGMDVWGQGTTVTVSS
VL: DIQMTQSPSSLSASVGDRVTITCRASQSISSYLNWYQQKPGKAPNLLIYTASSLQSGVPSRFSGSGSGTVFTLTISSLQPEDFATYYCQQSSSTPFTFGPGTKVDFK
notes: Fully human mAb from IgG2 kappa XenoMouse (B cell clone); also called Mab 213
B4: Ten-M2-120 (antibody, V domains shown)
VH: QVQLVESGGGVVQPGRSLRLSCAASGFTFSSYGMHWVRQAPGKGLEWVAVLWYDGSKKFYADSVKGRFTISRDNSKNTLYLQMNSLRAEDTALYYCARGPWNYYYYGMDVWGQGTTVTVSS
VL: EIVLTQSPGTLSLSPGERATLSCRASQSVISSYLAWYQQKPGQAPRLLIYNASNRATGIPDRFSGSGSGTDFTLTISRLEPEDFAVYYCQQYGSSPITFGQGTRLEIK
notes: also called Mab120
B5: Ten-M2-140 (antibody, IgG2, V domains shown)
VH: QEQLVESGGGVVQPGRSLRLSCAASGFTFSSHGMHWVRQAPGKGLEWVAIIWYDGSKKFYADSVKGRFTISRDNSKNTLSLQMNSLRAEDTAVYYCARGPWNYYYYGMDVWGQGTTVTVSS
VL: EIVLTQSPGTLSLSPGERATFSCRASQSVISNYLAWYQQKPGQAPRLLIYNTSSRATGIPGRFSGGGSGTDFTLTITRLEPEDFAVYYCQQYGSSPITFGQGTRLEIK
notes: Fully human mAb from IgG2 kappa XenoMouse (B cell clone); also called Mab140; anti-Ten-M2 monoclonal antibody clone 140
B6: Ten-M2-7.2.1 (antibody, IgG2, V domains shown)
VH: QVQLQESGPGLVKPSETLSLTCTVSGGSISSYYWSWIRQPPGKGLEWIGYIYYSGNTNYNPSLKSRVTISVDTSKNQFSLKLSSVTAADTAVYYCARDIVVVPAARDYDYYYGMDVWGQGTTVTVSS
VL: EIVLTQFPGTLSLSPGESAPLSCRASQSVSSIDLVWYQQKPGQAPRLLIYGASSRATGIPDRFSVSGSGTDFTLTISRLEPEDFAVYYCQQYGSSPFTFGPGTKVDIK
notes: as for B1
B7: Ten-M2-199 (antibody, IgG2, V domains shown)
VH: QVQLVQSGAEVKKPGASVKVSCKASGYTFTNYDINWLRQASGQGLEWMGWMNPDSGNTGYAQRFQGRVTMTRDTSISTAYMELSSLRSEDTAVYYCARYISSLHYYYYGMDVWGQGTTVTVSS
VL: DIQMTQSPSSLSASVGDRVTITCRASQSINSYLNWYQQKPGKAPRLLIYAASNLQSGVPSRFSGSGSGTDFTLTISSLQPEDFSTYYCQQSHNTPLTFGGGTKVEIK
notes: Fully human mAb from IgG2 kappa XenoMouse (B cell clone); also called Mab199
B8: Ten-M2-179 (antibody, IgG2, V domains shown)
VH: QVQLVESGGGVVQPGRSLRLSCAASGFTFSSYGMHWVRQAPGKGLEWVAFIWYDGSNKYYADSVKGRFTISRDNSKNTLYLQMNSLRAEDTAVYYCARDGSSGWYFFDYWGQGTLVTVSS
VL: DIVMTQTPLSLSVTPGQPASISCKSSQSLLHSDRQTYLFWYLQKPGQPPQLLIYEVSNRFSGVPDRFSGSGSGTDFTLKISRVEAEDVGVYYCMQSIQLPPTFGPGTKVDIK
notes: Fully human mAb from IgG2 kappa XenoMouse (B cell clone); also called Mab179
B9: Ten-M2-7.1.1 (antibody, IgG2, V domains shown)
VH: QVQLVESGGGVVQPGRSLRLSCAASGFTFSNYGMHWVRQAPGKGLEWVAVIPFDGSNKYYADSVKGRFTISRDNSKNTLYLQTNSLRAEDTAVYYCARNWGYFDYWGQGTLVTVSS
VL: DIVMTQSPLSLPVTPGEPASISCRTSQSLLQSNGYNYLDWYLQKPGQSPQLLIYLGSSRASGVPDRFSGSGSGTDFTLKISRVEAEDVGVYYCMQALQTLTFGGGTKVEIK
notes: as for B1

What was measured:
[1] = target: T1, soluble Ten-M2 antigen (FIG. 1B), Ten-M2 amino acids 400-2733 with 6xHis-V5 tag (human, UniProt Q9NT68 399-2774); assay: ELISA, plate coated with soluble Ten-M2 antigen, hybridoma supernatant
T1 construct: also called Curagen 007-V5HIS; soluble Ten-M2 (Cur007) ECD

[2] = target: T2, Ten-M2 endogenously expressed on human cancer cell lines (SNB-19 and others) (human, UniProt Q9NT68 1-2774); assay: flow cytometry on SNB-19 cells at 4° C., Alexa647 anti-human IgG secondary
T2 construct: whole, on cells; also called Ten-M2 (Cur007); CG50426

[3] = target: T2, Ten-M2 endogenously expressed on human …; assay: cell-based or functional assay
[4] = target: T3, Ten-M2 antigen (BiaCore analyte) (UniProt Q9NT68 399-2774)
[5] = target: T3, Ten-M2 antigen (BiaCore analyte); remark: listed apart in the source
[6] = target: T3, Ten-M2 antigen (BiaCore analyte); remark: listed apart in the source
[7] = target: T3, Ten-M2 antigen (BiaCore analyte); remark: listed apart in the source

| Binder | binding result [1] | Total Bound Fluorescence [2] | % Internalization (SNB-19 cells) [3] [%] | Internalized Fluorescence (SNB-19 cells, 37° C. 30 min, glutathione-resistant) [3] | Kd [4] [nM] | koff [4] [s⁻¹] | kon [4] [M⁻¹ s⁻¹] | Kd [5] [nM] | koff [6] [s⁻¹] | Kd [7] [nM] |
| --- | --- | --- | --- | --- | --- | --- | --- | --- | --- | --- |
| B1 | binds |  |  |  |  |  |  |  |  |  |
| B2 |  | 41.6 | 48 | 22.1 |  |  |  |  |  |  |
| B3 |  | 79.7 | 46 | 40.2 | 1.1 | 3.22e-05 | 29000 |  |  |  |
| B4 |  | 58.4 | 40 | 26.4 |  | 0.000465 | 26200 | 18 |  |  |
| B5 |  | 75.3 | 44 | 36.5 |  | 0.000605 | 40100 | 15 |  |  |
| B6 | binds |  |  |  |  |  |  |  |  |  |
| B7 |  | 64.8 | 46 | 32.9 |  |  | 23300 |  | ≤ 1e-06 | ≤ 0.043 |
| B8 |  | 89.6 | 29 | 13.6 |  |  | 16300 |  | ≤ 1e-05 | ≤ 0.61 |
| B9 | binds |  |  |  |  |  |  |  |  |  |
